Experimental findings from patent US8822645B2, “Prostaglandin E2 dual variable domain immunoglobulins and uses thereof” (AbbVie Inc., priority 2008, dated 2014) are described below.

The subject of series [1] is PGE2 / human EP4 receptor in HEK293 Gα16 cells. The experiment in a line: EP4 bioassay (Ca++ flux, neutralization of PGE2). Format: cell-based. The following applies: PGE2 VD in C-terminal position; EP4 bioassay, Ca++ flux; read-out: C-terminal VD PGE2 Neutralization EC50. The method in brief:
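Ca++ flux (FLIPR) in HEK293 Gα16 cells stably expressing human EP4, loaded with Ca++-sensitive dye for 90 min. PGE2, alone or pre-incubated with anti-PGE2 antibody, DVD-Ig or isotype control, was added in FLIPR buffer (HBSS, 20 mM HEPES, 0.1% BSA, 2.5 mM probenecid). EC50 derived from PGE2 dose-response.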

Series [2] can be described thus: Size exclusion chromatography, percent monomer of parent antibodies and DVD-Ig constructs. Format: physicochemical. The method, then: Antibodies were diluted to 2.5 mg/mL with water and […] is analyzed on a Shimadzu HPLC system using a TSK gel G3000 SWXL column (Tosoh Bioscience, cat#k5539-05k). […] The HPLC system operating conditions are the following: […]
(In gel filtration, larger molecules generally elute earlier.)

B1: DVD152: DVD-Ig construct listed in Table 4 (antibody)
VH: EVQLQESGPGLVRPSQTLSLTCTVSGYSITSDHAWSWVRQPPGRGLEWIGYISYSGITTYNPSLKSRVTMLRDTSKNQFSLRLSSVTAADTAVYYCARSLARTTAMDYWGQGSLVTVSSASTKGPEVQLVQSGAEVKKPGASVKVSCKASGYTFTKYWLGWVRQAPGQGLEWMGDIYPGYDYTHYNEKFKDRVTLTTDTSTSTAYMELRSLRSDDTAVYYCARSDGSSTYWGQGTLVTVSS
VL: DIQMTQSPSSLSASVGDRVTITCRASQDISSYLNWYQQKPGKAPKLLIYYTSRLHSGVPSRFSGSGSGTDFTFTISSLQPEDIATYYCQQGNTLPYTFGQGTKVEIKRTVAAPDVLMTQTPLSLPVTPGEPASISCTSSQNIVHSNGNTYLEWYLQKPGQSPQLLIYKVSNRFSGVPDRFSGSGSGTDFTLKISRVEAEDVGVYYCFQVSHVPYTFGGGTKVEIKR
In general, EC50 refers to the concentration needed to bring the measured effect to its halfway point. For the molecule B1, the half-maximal effective concentration (EC50) in series [1] was 25 pM. In addition, the “% Monomer (purity)” value in series [2] is reported as 87.6%.
